# In patent US20240325556A1, “Methods of Using Antibody-Drug-Conjugates” (priority 2021, published 2024):
# Where two headings read alike, the source gives them in different places. Square brackets hold non-standard residues; d marks the D form. Peptide text beside a SMILES is read from it. * marks the point of attachment. Dolaproine = CO[C@@H]([C@@H]1CCCN1)[C@@H](C)C(=O)O; Dil = CC[C@H](C)[C@H](NC)[C@@H](CC(=O)O)OC; X1 = C[C@@H](N*)[C@@H](O)c1ccccc1; NMeV = CN[C@H](C(=O)O)C(C)C
# B1: DS-1062 (conjugate, chains of the INN, looked up)
# VH: QVQLVQSGAEVKKPGASVKVSCKASGYTFTTAGMQWVRQAPGQGLEWMGWINTHSGVPKYAEDFKGRVTISADTSTSTAYLQLSSLKSEDTAVYYCARSGFGSSYWYFDVWGQGTLVTVSS
# VL: DIQMTQSPSSLSASVGDRVTITCKASQDVSTAVAWYQQKPGKAPKLLIYSASYRYTGVPSRFSGSGSGTDFTLTISSLQPEDFAVYYCQQHYITPLTFGQGTKLEIK
# modifications: deruxtecan payload
# How the values were obtained:
# NCI-H1781 cells = assay: In vitro cytotoxicity assay against nectin-4-expressing cell line NCI-H1781; assay type: cell-based; conditions: for IC50: NCI-H1781 cells, 5 days incubation, CellTiter-Glo viability, read-out: Absolute IC50
# Description: Cell lines were plated on Day −1 in 96-well plates (Corning #3603) at a density of 4×10^3 cells/well in 100 μL of growth media and cultured overnight. On Day 0, serial dilution of test samples was performed in growth media at 6× the final concentration and 20 μL was added to the cells. After incubation at 37° C. with 5% CO2 for 5 days, viability was measured using Promega CellTiter-Glo® according to the manufacturer's recommendations.
# Methods: Free payloads (MMAE and camptothecin) and nectin-4 ADCs carrying either MMAE, camptothecin, or maytansine were produced and tested in an in vitro cytotoxicity assay against the nectin-4-expressing cell line, NCI-H1781 (FIG. 1).
# Male Sprague-Dawley rats = assay: Non-GLP rat toxicology study of nectin-4 ADCs; assay type: in vivo; conditions: 4 doses
# Description: (§1) Male Sprague-Dawley rats (8-9 wk old at study start, 5 animals/group) were dosed intravenously with either vehicle alone or with nectin-4 conjugates made using antibodies carrying the variable regions of the rat cross-reactive antibody, enfortumab. The tested ADCs were nectin-4 vedotin (dosed at 10 mg/kg), and nectin-4 CH1/CT RED-106 (dosed at either 10 or 20 mg/kg). Dosing occurred weekly for a total of 4 doses (days 1, 8, 15, and 22). […] Body weights were recorded four times/week. Blood was collected from all animals for clinical pathology on days 5, 12, 19, and 26, and for toxicokinetic analysis at 8 h and days 4 and 7 post-dose (for all doses). Clinical observations were conducted daily.
# Methods: Rat cross-reactive nectin-4 ADCs carrying either RED-106 or vedotin linker-payloads were prepared (DAR depicted in FIGS. 8A-8D) and tested in a rat toxicity study.
# [1] = Toxicokinetic analysis of rat plasma samples (total antibody and total ADC ELISA); assay type: in vivo; conditions: repeat dose toxicity study, listed as RED-106 conjugate
# Description: as §1
# Methods: Total antibody and total ADC concentrations were quantified by ELISA as previously described and diagrammed in the figure. For total antibody, conjugates were captured with an anti-human IgG-specific antibody and detected with an HRP-conjugated anti-human Fc-specific antibody. For total ADC, conjugates were captured with an anti-human Fab-specific antibody and detected with a mouse anti-maytansine primary antibody, followed by an HRP-conjugated anti-mouse IgG-subclass 1-specific secondary antibody. Bound secondary antibody was detected using Ultra TMB One-Step ELISA substrate (Thermo Fisher). […] Data were analyzed using GraphPad Prism and Microsoft Excel software.
# [2] = 10 mg/kg weekly for four doses; cited from earlier work
# [3] = preclinical and clinical effects; cited from earlier work
molecule,measurement,setting,value
N.N.[Cl][Pt][Cl] [Cisplatin],IC50,NCI-H1781 cells,230 nM
"CC[C@@]1(O)C(=O)OCc2c1cc1n(c2=O)Cc2cc3ccccc3nc2-1 [Free Camptothecin, camptothecin]",IC50,NCI-H1781 cells; 120 h,1 nM
"CC[C@H](C)[C@@H]([C@@H](CC(=O)N1CCC[C@H]1[C@H](OC)[C@@H](C)C(=O)N[C@H](C)[C@@H](O)c1ccccc1)OC)N(C)C(=O)[C@@H](NC(=O)[C@@H](NC)C(C)C)C(C)C [Free MMAE, monomethyl auristatin E] (H-[NMeV]V[Dil][Dolaproine]-X1)",IC50,NCI-H1781 cells,0.3 nM
"Nectin-4 CH1/CT RED-106: nectin-4 ADC with variable regions of enfortumab, CH1/CT aldehyde-tagged, carrying RED-106 maytansine linker-payload",Mortality,Male Sprague-Dawley rats; 10 or 20 mg/kg i.v. weekly,no mortalities
same,Signs of fur/skin toxicity compared with vedotin conjugate,Male Sprague-Dawley rats; 10 or 20 mg/kg i.v. weekly,fewer signs of fur/skin toxicity
same,In vivo stability of the conjugate compared with the vedotin ADC,[1],improved in vivo stability
same,IC50,NCI-H1781 cells,1 nM
same,In vitro potency of RED-106 conjugate compared with MMAE conjugate,NCI-H1781 cells; NCI-H1781 target cell line,similar
"nectin-4 vedotin: nectin-4 conjugate with enfortumab variable regions, untagged antibody conjugated with maleimide-valcit-MMAE [reference compound]",Toxicity noted in previous reports,[2],fur and skin toxicity and mortality
same,Clinical signs of toxicity in fur and skin,Male Sprague-Dawley rats; 10 mg/kg i.v. weekly,all animals exhibited clinical signs of toxicity in fur and skin
same,Animals euthanized in distress,"Male Sprague-Dawley rats; 10 mg/kg i.v. weekly, 5 animals/group",1 animal
B1,Toxicity noted in previous reports,[3],skin and mucosal toxicity
